# In PMC11263391, “Molecular insights into degron recognition by CRL5^ASB7 ubiquitin ligase” (Nature Communications, 2024):
# Legend:
# [1] = biological target: ASB7-Elongin B-Elongin C ternary complex (wild-type ASB7, residues 11-318) (human) (UniProt Q9H672); assay: ITC; peptide in the syringe titrated into ASB7-Elongin B/C in the cell; MicroCal PEAQ-ITC, 16 °C, 20 mM Tris-HCl pH 7.5, 150 mM NaCl; 39–156 μM protein, 0.8–4 mM peptide; repeated three times, mean ± SD
# [2] = biological target: ASB7 Arg185-to-alanine mutant in complex with Elongin B/C (human) (UniProt Q9H672); assay: ITC; peptide (0.8–4 mM) titrated into the ASB7 complex (39–156 µM); 16 °C; 20 mM Tris-HCl pH 7.5, 150 mM NaCl; MicroCal PEAQ-ITC
# [3] = biological target: ASB7 Phe182 alanine mutant in complex with Elongin B/C (human) (UniProt Q9H672); assay: as above
# [4] = biological target: ASB7 D116A mutant in complex with Elongin B/C (human) (UniProt Q9H672); assay: as above
# [5] = biological target: ASB7 R160A mutant in complex with Elongin B/C (human) (UniProt Q9H672); assay: as above
# [6] = biological target: ASB7 with Trp118 in ANK3 or Phe82 in ANK4 replaced with alanine; assay: as above
Kd [1] [µM],stoichiometry N [1],fold decrease in binding affinity against wild-type ASB7 [2] [fold],fold decrease in binding affinity against wild-type ASB7 [3] [fold],fold reduction in binding against wild-type ASB7 [4] [fold],fold decrease in binding affinity against wild-type ASB7 [5] [fold],fold decrease in binding affinity against wild-type ASB7 [6] [fold],Substance
0.6,0.75,,,,,,"LZTS1 degron peptide, 22 residues (…)"
,,4,3,7,3,10 to 30,LZTS1-degron 23-residue peptide
